Numbered stars: 1 amine (or outer) side, 2 acyl side, 3 side chain; on linkers, the order of the positions; unused ones are H or OH. Bridge positions count the residues as written; N and C are the ends. Side chains are listed from the residue outwards. Ends that are not written are not given here. * marks the point of attachment. C20 diacid = O=C(O)CCCCCCCCCCCCCCCCCCC(=O)*; C18 diacid = O=C(O)CCCCCCCCCCCCCCCCC(=O)*; γGlu = O=C(O)[C@H](CCC(=O)[*:2])N[*:1]; C14 diacid = O=C(O)CCCCCCCCCCCCC(=O)*
T1: rat calcitonin receptor (rat, UniProt P32214 25-516)
T1 construct: whole, on cells; Used as membranes prepared from the transfected cells (Assay VIII); also called rCTR; rat calcitonin (a) receptor
T1 sequence (looked up): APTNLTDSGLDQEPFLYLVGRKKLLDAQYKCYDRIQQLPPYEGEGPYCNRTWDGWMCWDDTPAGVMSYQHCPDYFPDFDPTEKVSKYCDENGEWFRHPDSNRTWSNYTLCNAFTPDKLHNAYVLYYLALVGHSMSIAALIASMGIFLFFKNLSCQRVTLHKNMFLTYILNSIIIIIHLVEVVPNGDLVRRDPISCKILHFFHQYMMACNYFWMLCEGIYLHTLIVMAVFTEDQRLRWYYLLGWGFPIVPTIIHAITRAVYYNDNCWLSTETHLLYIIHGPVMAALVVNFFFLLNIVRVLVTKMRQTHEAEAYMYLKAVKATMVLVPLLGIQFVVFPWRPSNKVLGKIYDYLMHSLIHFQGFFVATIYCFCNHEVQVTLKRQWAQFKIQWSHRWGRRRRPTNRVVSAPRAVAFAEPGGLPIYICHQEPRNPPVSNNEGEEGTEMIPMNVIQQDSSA

T2: human calcitonin receptor (human, UniProt P30988 25-474)
T2 construct: whole, on cells; Used as membranes prepared from the transfected cells (Assay VII); also called hCTR; hCT
T2 sequence (looked up): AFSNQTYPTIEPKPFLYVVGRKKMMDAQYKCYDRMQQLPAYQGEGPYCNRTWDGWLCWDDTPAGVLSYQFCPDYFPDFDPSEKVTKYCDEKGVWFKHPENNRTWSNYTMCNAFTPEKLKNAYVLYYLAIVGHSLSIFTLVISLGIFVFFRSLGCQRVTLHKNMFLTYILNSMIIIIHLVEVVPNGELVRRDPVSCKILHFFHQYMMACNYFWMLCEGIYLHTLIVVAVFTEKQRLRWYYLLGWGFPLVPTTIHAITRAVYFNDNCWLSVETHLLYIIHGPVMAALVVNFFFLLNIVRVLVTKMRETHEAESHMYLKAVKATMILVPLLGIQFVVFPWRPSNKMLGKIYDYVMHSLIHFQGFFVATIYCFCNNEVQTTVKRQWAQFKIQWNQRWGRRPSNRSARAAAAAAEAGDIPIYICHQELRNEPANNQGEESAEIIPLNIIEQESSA

T3: rat amylin receptor (rat calcitonin receptor + rat RAMP 3) (rat, UniProt P32214 25-516; Q9JJ73 23-147)
T3 construct: whole, on cells; Used as membranes prepared from the transfected cells (Assay VI); also called rAmylin-R; rat amylin 3(a) receptor
T3 sequence (looked up) 1: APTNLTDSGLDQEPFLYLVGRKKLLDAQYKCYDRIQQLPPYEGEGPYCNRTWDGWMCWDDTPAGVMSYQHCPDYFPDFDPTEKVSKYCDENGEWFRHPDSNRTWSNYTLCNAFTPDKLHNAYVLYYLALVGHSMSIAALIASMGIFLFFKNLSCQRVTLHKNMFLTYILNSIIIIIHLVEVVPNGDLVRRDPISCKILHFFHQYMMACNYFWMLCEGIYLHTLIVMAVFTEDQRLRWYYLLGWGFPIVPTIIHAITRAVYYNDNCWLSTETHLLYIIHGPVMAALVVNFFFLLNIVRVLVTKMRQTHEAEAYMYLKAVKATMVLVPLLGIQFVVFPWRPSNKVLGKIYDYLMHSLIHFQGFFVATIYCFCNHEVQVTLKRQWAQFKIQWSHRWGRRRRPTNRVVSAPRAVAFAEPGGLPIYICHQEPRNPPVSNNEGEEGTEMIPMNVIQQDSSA
T3 sequence (looked up) 2: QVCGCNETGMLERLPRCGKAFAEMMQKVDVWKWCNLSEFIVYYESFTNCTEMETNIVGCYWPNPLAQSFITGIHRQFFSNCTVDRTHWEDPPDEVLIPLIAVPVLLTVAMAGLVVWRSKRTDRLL


How the values were obtained:
rat calcitonin receptor [1] = target: T1, rat calcitonin receptor; assay: ratio of IC50 on rat calcitonin receptor (Assay VIII) to IC50 on rat amylin receptor (Assay VI)
[2] = target: T2, human calcitonin receptor; assay: ratio of IC50 on human calcitonin receptor (Assay VII) to IC50 on human amylin receptor (Assay V)
Description: The resulting pellet was resuspended, homogenized and centrifuged (20.000 rpm, 15 min) in a buffer containing 20 mM Na-HEPES and 0.1 mM EDTA (pH 7.4, buffer 2). The resulting pellet was resuspended in buffer 2 and protein concentration was measured (BCA protein Assay, Pierce). The homogenate was kept cold during the whole procedure. The membranes were kept at −80° C. until use. The assay was performed in a 384 well Optiplate (PerkinElmer) in a total volume of 40 ul. Membranes were mixed with SPA beads. Final concentration of membranes 35 ng/μL final and SPA beads was 0.05 mg/well. Test-compounds were dissolved in DMSO and further diluted in assay buffer (50 mM Hepes, pH 7.4, 1 mM CaCl2, 5 mM MgCl₂, 0.1% OA and 0.02% Tween20). […] The final mixture was incubated with shaking at 400 rpm for 120 min at 25° C. prior to centrifugation (1500 rpm, 10 min). Samples were analyzed on TopCounter™ (Packard). The IC₅₀ was calculated using (one site binding competition analysis) GraphPad Prism5 as a measure of receptor affinity.
Membranes were prepared in the following way; the cells were rinsed with PBS and incubated with Versene for approximately 5 min before harvesting. The cells were flushed with PBS and the cell-suspension was centrifuged for 5 min at 1000 rpm. Cells were homogenized (Ultrathurrax) in a buffer containing 20 mM Na-HEPES and 10 mM EDTA (pH 7.4) and centrifuged at 20.000 rpm for 15 min. The resulting pellet was resuspended, homogenized and centrifuged (20.000 rpm, 15 min) in a buffer containing 20 mM Na-HEPES and 0.1 mM EDTA (pH 7.4, buffer 2). The resulting pellet was resuspended in buffer 2 and protein concentration was measured (BCA protein Assay, Pierce). The homogenate was kept cold during the whole procedure. The membranes were kept at −80° C. until use. Assay was performed in a 384 well Optiplate (PerkinElmer) in a total volume of 40 ul. Membranes were mixed with SPA beads.

rat calcitonin receptor [3] = target: T1, rat calcitonin receptor; assay: SPA competition binding, displacement of 125I-calcitonin from membranes of BHK tk'ts 13 cells transfected with rat calcitonin receptor (Assay VIII)
[4] = target: T3, rat amylin receptor (rat calcitonin …); assay: SPA competition binding, displacement of 125I-rat amylin from membranes of BHK tk'ts 13 cells transfected with rat calcitonin receptor + rat RAMP 3 (Assay VI)

| Binder | Ratio rCT/rAmylin binding (rat calcitonin receptor [1]) | Ratio hCT/hAmylin binding [2] | IC50 (rat calcitonin receptor [3]) | IC50 [4] |
| --- | --- | --- | --- | --- |
| {C20 diacid-γGlu}-GRCNTATCATQRLAHFLRHSSPNFGAIPSSTNVGPNTY-NH2 (disulfide 3-8; SMILES CC[C@H](C)[C@H](NC(=O)[C@H](C)NC(=O)CNC(=O)[C@H](Cc1ccccc1)NC(=O)[C@H](CC(N)=O)NC(=O)[C@@H]1CCCN1C(=O)[C@H](CO)NC(=O)[C@H](CO)NC(=O)[C@H](Cc1c[nH]cn1)NC(=O)[C@H](CCCNC(=N)N)NC(=O)[C@H](CC(C)C)NC(=O)[C@H](Cc1ccccc1)NC(=O)[C@H](Cc1c[nH]cn1)NC(=O)[C@H](C)NC(=O)[C@H](CC(C)C)NC(=O)[C@H](CCCNC(=N)N)NC(=O)[C@H](CCC(N)=O)NC(=O)[C@@H](NC(=O)[C@H](C)NC(=O)[C@@H]1CSSC[C@H](NC(=O)[C@H](CCCNC(=N)N)NC(=O)CNC(=O)CC[C@H](NC(=O)CCCCCCCCCCCCCCCCCCC(=O)O)C(=O)O)C(=O)N[C@@H](CC(N)=O)C(=O)N[C@@H]([C@@H](C)O)C(=O)N[C@@H](C)C(=O)N[C@@H]([C@@H](C)O)C(=O)N1)[C@@H](C)O)C(=O)N1CCC[C@H]1C(=O)N[C@@H](CO)C(=O)N[C@@H](CO)C(=O)N[C@H](C(=O)N[C@@H](CC(N)=O)C(=O)N[C@H](C(=O)NCC(=O)N1CCC[C@H]1C(=O)N[C@@H](CC(N)=O)C(=O)N[C@H](C(=O)N[C@@H](Cc1ccc(O)cc1)C(N)=O)[C@@H](C)O)C(C)C)[C@@H](C)O, not restated for each compound) | 97.7 | 36.2 | 65.9 nM | 0.674 nM |
| {C20 diacid-γGlu}-GRCNTATCATQRLAAFLRHSSPNFGAIPSSTNVGPNTY-NH2 (disulfide 3-8, not restated for each compound) | 129 | 26.5 | 56.3 nM | 0.436 nM |
| K([γGlu-γGlu-C20 diacid])CNTATCATQRLAEFLRHSSPNFGAIPSSTNVGPRTY-NH2 (disulfide 2-7; N-terminus assumed; SMILES CC[C@H](C)[C@H](NC(=O)[C@H](C)NC(=O)CNC(=O)[C@H](Cc1ccccc1)NC(=O)[C@H](CC(N)=O)NC(=O)[C@@H]1CCCN1C(=O)[C@H](CO)NC(=O)[C@H](CO)NC(=O)[C@H](Cc1c[nH]cn1)NC(=O)[C@H](CCCNC(=N)N)NC(=O)[C@H](CC(C)C)NC(=O)[C@H](Cc1ccccc1)NC(=O)[C@H](CCC(=O)O)NC(=O)[C@H](C)NC(=O)[C@H](CC(C)C)NC(=O)[C@H](CCCNC(=N)N)NC(=O)[C@H](CCC(N)=O)NC(=O)[C@@H](NC(=O)[C@H](C)NC(=O)[C@@H]1CSSC[C@H](NC(=O)[C@@H](N)CCCCNC(=O)CC[C@H](NC(=O)CC[C@H](NC(=O)CCCCCCCCCCCCCCCCCCC(=O)O)C(=O)O)C(=O)O)C(=O)N[C@@H](CC(N)=O)C(=O)N[C@@H]([C@@H](C)O)C(=O)N[C@@H](C)C(=O)N[C@@H]([C@@H](C)O)C(=O)N1)[C@@H](C)O)C(=O)N1CCC[C@H]1C(=O)N[C@@H](CO)C(=O)N[C@@H](CO)C(=O)N[C@H](C(=O)N[C@@H](CC(N)=O)C(=O)N[C@H](C(=O)NCC(=O)N1CCC[C@H]1C(=O)N[C@@H](CCCNC(=N)N)C(=O)N[C@H](C(=O)N[C@@H](Cc1ccc(O)cc1)C(N)=O)[C@@H](C)O)C(C)C)[C@@H](C)O, not restated for each compound; also called compound 110) | 113 | 53.6 | 38.3 nM | 0.339 nM |
| K([γGlu-C18 diacid])CNTATCATQRLANFLRHSSPNFGAIPSSTNVGHNTY-NH2 (disulfide 2-7; N-terminus assumed; SMILES CC[C@H](C)[C@H](NC(=O)[C@H](C)NC(=O)CNC(=O)[C@H](Cc1ccccc1)NC(=O)[C@H](CC(N)=O)NC(=O)[C@@H]1CCCN1C(=O)[C@H](CO)NC(=O)[C@H](CO)NC(=O)[C@H](Cc1c[nH]cn1)NC(=O)[C@H](CCCNC(=N)N)NC(=O)[C@H](CC(C)C)NC(=O)[C@H](Cc1ccccc1)NC(=O)[C@H](CC(N)=O)NC(=O)[C@H](C)NC(=O)[C@H](CC(C)C)NC(=O)[C@H](CCCNC(=N)N)NC(=O)[C@H](CCC(N)=O)NC(=O)[C@@H](NC(=O)[C@H](C)NC(=O)[C@@H]1CSSC[C@H](NC(=O)[C@@H](N)CCCCNC(=O)CC[C@H](NC(=O)CCCCCCCCCCCCCCCCC(=O)O)C(=O)O)C(=O)N[C@@H](CC(N)=O)C(=O)N[C@@H]([C@@H](C)O)C(=O)N[C@@H](C)C(=O)N[C@@H]([C@@H](C)O)C(=O)N1)[C@@H](C)O)C(=O)N1CCC[C@H]1C(=O)N[C@@H](CO)C(=O)N[C@@H](CO)C(=O)N[C@H](C(=O)N[C@@H](CC(N)=O)C(=O)N[C@H](C(=O)NCC(=O)N[C@@H](Cc1c[nH]cn1)C(=O)N[C@@H](CC(N)=O)C(=O)N[C@H](C(=O)N[C@@H](Cc1ccc(O)cc1)C(N)=O)[C@@H](C)O)C(C)C)[C@@H](C)O, not restated for each compound) [N^ε1-[(4S)-4-carboxy-4-(17-carboxyheptadecanoylamino)butanoyl]-[Arg17,Pro21,Pro27,His34]-h-amylin] | 40.3 | 59.4 | 47 nM | 1.17 nM |
| K([γGlu-C14 diacid])CNTATCATQRLANFLRHSSPNFGAIPSSTNVGHNTY-NH2 (disulfide 2-7; N-terminus assumed; SMILES CC[C@H](C)[C@H](NC(=O)[C@H](C)NC(=O)CNC(=O)[C@H](Cc1ccccc1)NC(=O)[C@H](CC(N)=O)NC(=O)[C@@H]1CCCN1C(=O)[C@H](CO)NC(=O)[C@H](CO)NC(=O)[C@H](Cc1c[nH]cn1)NC(=O)[C@H](CCCNC(=N)N)NC(=O)[C@H](CC(C)C)NC(=O)[C@H](Cc1ccccc1)NC(=O)[C@H](CC(N)=O)NC(=O)[C@H](C)NC(=O)[C@H](CC(C)C)NC(=O)[C@H](CCCNC(=N)N)NC(=O)[C@H](CCC(N)=O)NC(=O)[C@@H](NC(=O)[C@H](C)NC(=O)[C@@H]1CSSC[C@H](NC(=O)[C@@H](N)CCCCNC(=O)CC[C@H](NC(=O)CCCCCCCCCCCCC(=O)O)C(=O)O)C(=O)N[C@@H](CC(N)=O)C(=O)N[C@@H]([C@@H](C)O)C(=O)N[C@@H](C)C(=O)N[C@@H]([C@@H](C)O)C(=O)N1)[C@@H](C)O)C(=O)N1CCC[C@H]1C(=O)N[C@@H](CO)C(=O)N[C@@H](CO)C(=O)N[C@H](C(=O)N[C@@H](CC(N)=O)C(=O)N[C@H](C(=O)NCC(=O)N[C@@H](Cc1c[nH]cn1)C(=O)N[C@@H](CC(N)=O)C(=O)N[C@H](C(=O)N[C@@H](Cc1ccc(O)cc1)C(N)=O)[C@@H](C)O)C(C)C)[C@@H](C)O, not restated for each compound) [N^ε1-[(4S)-4-carboxy-4-(13-carboxytridecanoylamino)butanoyl]-[Arg17,Pro21,Pro27,His34]-h-amylin] | 280 | 23.5 | 707 nM | 2.52 nM |
